The values that follow come from patent US20250002543A1.

For experiment [1], the target named is immunoglobulin immobilized on IgG Sepharose 6 Fast Flow (manufactured by Cytiva). Kind of experiment: IgG Sepharose 6 Fast Flow column; linear gradient 0.1 M citrate pH 6.5 to pH 2.2; pH at the peak of the eluted binding protein.
The target of experiment [2] is Herceptin containing human κ light chain subgroup 1 (Vκ1) (manufactured by Chugai Pharmaceutical Co., Ltd.). Briefly: ELISA; Herceptin immobilised, binding protein at 2 ug/mL, dissociation with 0.05 M citric acid pH 2.7 for 2 min, absorbance ratio to wells without dissociation. In general terms: An ELISA detects its analyte on a solid surface through an enzyme-linked reagent.

“FpL_C3 (wild-type), immunoglobulin-binding domain C3 of protein L (FpL) of Finegoldia magna” displayed an Elution pH in experiment [1] of 2.9 pH. Further, in experiment [2], the Elution rate [%] is 76%.
